Laboratory results published in paper PMC9561379.

Legend:
[1] = target: H2B S112C-MB nucleosome (MB-modified H2B S112C) (Xenopus)
[2] = target: asymmetric nucleosome MB/WT (MB-modified H2A/H2B S112C dimer in the upstream position, WT dimer downstream) (Xenopus) (UniProt P06897)
[3] = target: asymmetric nucleosome WT/MB (WT dimer in the upstream position, MB-modified H2A/H2B S112C dimer downstream) (Xenopus) (UniProt P06897)
[4] = target: asymmetric nucleosome MB/WT (MB-modified H2A/H2B S112C dimer in the upstream position, WT dimer downstream) (Xenopus) (UniProt P06897); experiment: native gel or EMSA; asymmetrically modified nucleosomes on Cy5-labelled DNA incubated with or without streptavidin, 5% acrylamide nucleoprotein gels, imaged by fluorography
[5] = target: asymmetric nucleosome WT/MB (WT dimer in the upstream position, MB-modified H2A/H2B S112C dimer downstream) (Xenopus) (UniProt P06897); experiment: as above
[6] = target: H2A G2C-MB nucleosome (100% MB-modified H2A G2C, both H2A N-tails biotinylated) (Xenopus); experiment: native gel or EMSA; biotin-modified or unmodified nucleosomes (radiolabelled 601 DNA) incubated with streptavidin in TE buffer for 10 min at room temperature, run on 6% native PAGE (legend of Figure 2B: 5%); mobility shift

rate of HhaI digestion during RSC remodeling, nucleosomes with one streptavidin bound (1SA) against unbound nucleosomes [1] [fold slower] | rate of HhaI digestion during RSC remodeling, nucleosomes with two streptavidins bound (2SA) against the unbound control [1] [fold slower] | fraction of RSC-mobilized, streptavidin-bound nucleosomes protected from Hind III digestion at the downstream end (about 40% without streptavidin) [2] [%] | fraction of RSC-mobilized, streptavidin-bound nucleosomes protected from Hind III digestion at the downstream end (about 40% without streptavidin) [3] [%] | stoichiometry N (streptavidin per nucleosome) [4] | stoichiometry N (streptavidin per nucleosome) [5] | stoichiometry N (streptavidin per nucleosome) [6] | Substance
2 | 20 | 80 | 20 |  |  |  | RSC (Remodels the Structure of Chromatin) complex, yeast (from UniProt P32597 1-1359; Q06168 1-426; Q06488 1-889; Q02206 1-625; Q07979 1-502; Q12406 1-477; Q05123 1-467)
 |  |  |  | 1 | 1 | 1 | streptavidin (from UniProt P22629 25-183) (natural protein)
